Results published in publication PMC7069927, “Amyloid formation of bovine insulin is retarded in moderately acidic pH and by addition of short-chain alcohols” (European Biophysics Journal, 2020).
Read-outs that look alike come from different tables or passages of the source. Values belong to the compound of their own block, whether it stands above or below them.

Assays:
bovine insulin = target: T1, bovine insulin (Bos taurus, UniProt P01317); assay: Effect of short-chain alcohols on insulin fibrillation kinetics (ThT) at pH 4.0; details: ammonium acetate buffer pH 4.0, ThT, 60 °C; for retardation of insulin fibril formation (half-time) at the most effective alcohol:buffer mixing ratio: quiescent, triplicate, alcohol range 0-50% v/v; for alcohol concentration of maximal retarding effect: volume fraction
T1 construct: 51 amino acid residues, distributed over two polypeptide chains (A and B) that are interconnected by disulphide bridges; purchased Sigma-Aldrich I5500
Method: (§1) Aggregation kinetics was monitored by ThT fluorescence in a Fluostar Omega or Fluostar Optima fluorescence plate reader (BMG Labtech, Ortenberg, Germany) at 60 °C without shaking. Samples were deposited in 100 μl triplicate in black half-area 96-well microtiter plates with transparent bottoms (Corning #3881), and the plates were sealed with plastic film (Bio-Rad Laboratories, Hercules, CA, U.S.) to avoid sample evaporation. ThT fluorescence emission was detected using bottom optics, a 440 ± 10 nm band pass excitation filter, and a 485 ± 12 nm band pass emission filter. The ThT concentration was 7.2 μM in all experiments.
To mimic conditions relevant to industrial purification of insulin, we investigated the effect of three short-chain alcohols (methanol, ethanol and isopropanol) on insulin aggregation in ammonium acetate buffer. We monitored ThT kinetics as function of increasing concentration (range: 0–50% v/v) of each alcohol (Fig. 5a–c). […] Methanol is apparently a weaker modulator (it retards fibril formation by ~ 2 times); higher concentrations (40%) are also needed to reach maximal effect.

[1] = Fibril formation yield (centrifugation to sediment amyloid fibrils); assay type: physicochemical, bovine
Method: The fibril yields for the reactions shown in Fig. 1 were estimated by centrifugation experiments to sediment amyloid fibrils formed at a starting concentration of 58 μM insulin. […] We also used centrifugation to sediment insoluble insulin in 1 mg/ml solutions to investigate the solubility across a range of buffers with different pH values (Fig. 1d).

[2] = centrifuged 13,400 rpm 15 min, absorption 280 nm
Method: The solubility of insulin as function of pH was estimated by preparing insulin solutions with varying pH at a concentration of 1 mg/ml. The solutions were centrifuged at 13,400 rpm in an Eppendorf Minispin tabletop centrifuge (Eppendorf, Hamburg, Germany) for 15 min to pellet non-dissolved insulin. The solubility was estimated by measuring the insulin concentration in the supernatant by absorption (see above). The same strategy was used to determine fibril formation yields at different pH values, using pre-formed fibrils as starting material.

[3] = AFM imaging of the end point of the fibrillation reaction; assay type: physicochemical, bovine; details: aggregated in ammonium acetate pH 4.0 in presence of 30% (vol/vol) EtOH; on mica
Method: For atomic force microscopy, fibrillar insulin was deposited on freshly cleaved mica and left to settle for 5 min, after which the mica plates were rinsed with milli-Q water and dried under a gentle stream of nitrogen. AFM images were recorded on an NTEGRA Prima setup (NT-MDT, Moscow, Russian Federation) equipped with a gold-coated single crystal silicon cantilever (NSG-01, spring constant ~ 5.1 N/m, resonance frequency of ~ 150 kHz). The images were processed in the Gwyddion software package (Nečas and Klapetek [2012]) using planar subtraction, polynomial background subtraction and correction for linear aberrations. For fluorescence microscopy, 150 µl of insulin solution was placed on positively charged glass (Thermo Scientific, Waltham, MA, USA) and sealed with a 18 × 18 mm coverslip. A Zeiss AxioObserver.Z1 inverted fluorescence microscope (Carl Zeiss AG, Oberkochen, Germany) with a 100 × oil immersion objective (NA = 1.46) was used in combination with a Photometrics Evolve EMCCD camera (Photometrics, Tuscon, AZ, USA), 100 ms exposure time, to obtain the images of the samples.
This is probably due to ThT’s fluorescence being sensitive both to ThT binding affinity and to the quantum yield of each bound dye molecule (Lindberg et al.[2015], [2017]). […]

[4] = ref Wintersteiner and Abramson [1933]; cited from earlier work
[5] = Thioflavin-T kinetic assay of insulin amyloid formation; assay type: physicochemical, bovine; details: 64 μM insulin, 60 °C, quiescent; for half-time of amyloid formation: ThT 7.2 μM
Method: as §1
We set up thioflavin-T kinetic assays to monitor the aggregation of bovine insulin in microtitre plates at 60 °C and under quiescent conditions, initially at pH 2.2 to establish a reproducible method, then extending to pH 7.0 to reflect native conditions. The resulting kinetic curves (presented as normalized ThT fluorescence) are presented in Fig. 1a, b; each condition was analysed in triplicate and all curves are shown. The aggregation rate of bovine insulin increases with increase in monomer concentration at pH 2.2 (Fig. 1a), which is intuitively expected and also consistent with many previous studies (see for example Brange and Langkjoer [1993]; Nielsen et al. [2001]). […] The scaling component, i.e. the slope of the fitted straight line to the half-time data, for insulin aggregation kinetics at pH 2.2 is − 1.02, which is consistent with a nucleation-dependent aggregation mechanism (Meisl et al. [2016]). […] This is, from an amyloid formation point of view, an anomalous behaviour that can be explained by that insulin, in addition to existing as a monomer, populates higher-order oligomeric states that are resilient to amyloid formation; or interfere with fibril elongation (Ziaunys et al. [2018]). These higher-order states can be significant, or even predominant, at pH 7.0 despite that no stabilizing zinc was added (Ziaunys et al. [2018]; Waugh et al. [1953]; Goldman and Carpenter, [1974]).

T1 sequence (P01317 25-54 limits assumed): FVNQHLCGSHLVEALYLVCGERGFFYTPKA
T1 sequence (P01317 85-105 limits assumed): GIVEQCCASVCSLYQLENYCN

retardation of insulin fibril formation (half-time) at the most effective alcohol:buffer mixing ratio (bovine insulin): three to four | alcohol concentration of maximal retarding effect (bovine insulin): 30–35%
Compound: CCO [Ethanol, ethanol]

Compound: CO [Methanol, methanol]
retardation of insulin fibril formation (half-time) at the most effective alcohol:buffer mixing ratio (bovine insulin): ~ 2 times | alcohol concentration of maximal retarding effect (bovine insulin): 40%

retardation of insulin fibril formation (half-time) at the most effective alcohol:buffer mixing ratio (bovine insulin): three to four | alcohol concentration of maximal retarding effect (bovine insulin): 30–35%
Compound: CC(C)O [isopropanol]

Compound: Bovine insulin
fibril yield ([1]; pH 2.2, starting concentration 58 μM insulin, absorption of supernatant): 91 ± 8% | fibril yield ([1]; pH 4.0, absorption of supernatant): > 99.5% | fibril yield ([1]; pH 7.0, starting concentration 58 μM insulin, absorption of supernatant, n = 3): 90 ± 5% | insulin solubility ([2]; across most of the assayed pH range except pH 5.0-6.0, 1 mg/ml (172 μM), pre-dissolved in 100 mM HCl): high | insulin solubility ([2]; pH 4.0, 1 mg/ml): solubility remains high | insulin solubility ([2]; pH 5.0-6.0, close to pI, 1 mg/ml): low solubility | size of oligomeric particles at end point of fibrillation (AFM) [3]: 2–3 nm | isoelectric point (pI) [4]: 5.3 | half-time of amyloid formation ([5]; ammonium acetate buffer (200 mM) pH 4.0, printed 'ammonium phosphate', triplicate): 7.7 ± 0.8 h | half-time of amyloid formation ([5]; citrate-phosphate buffer pH 4.0, triplicate): 6.5 ± 0.1 h | slowing of amyloid formation kinetics as measured by half-time of fibril formation ([5]; pH 4.0 compared with pH 3.0 or pH 7.0, citrate-phosphate buffer, ThT, triplicate): ~ 50% | amyloid formation ([5]; pH 5.0-6.0, citrate-phosphate buffer, ThT, no reliable half-times within assayed time range): strongly inhibited
